Data published in the supplement of paper PMC12455559.

Assay: purified protein yield per well (BCA); higher = higher soluble expression
How it was run: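 Each candidate enzyme was grown in E. coli C41(DE3) in a 2 mL autoinduction culture (100 µg/mL kanamycin; 2 h at 37 °C, then 40 h at 18 °C) and purified robotically via Ni-charged magnetic beads with SUMO protease cleavage. Purified protein yield per well was assessed using the Pierce Rapid Gold BCA kit. Readings below 25 ug (0.1 mg/mL) are beneath the detection threshold.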

Purified protein yield per well, < 25 µg:
DEVGQAPTAANIVGDGSFATTSSAITGQSGFGGGTVYYPTTAGRYPVVAVAPGFLSDWNSLNWLGSRVASWGFVVVGVNTNSGFDFPPSRGDQLLAALNWAVGSAPVAVRDKVDGTRRGVAGWSMGGGGTLEALAKDTTGTVKAGVPLAPWHSDKTWEQVSEPVFLVGGQNDTVAAPSSHAIPFYNSLGGQKSYLELAGQAHFFPTTSNPTVSRAIVSWFKRFVSSDNRFTPFTCGYTGSAVSNFRSSAC [ESM100]
DGEYRVLTYTDFPDAPEFGDGTIYYPVGTPGPIGGVAIVPGFTEEQRAVAWLGPRLASHGYAVLIFDTNDRRDPAQVRADELMGAVRVLRAENSRRGSPLFGRIDASKMAIMGHSMGGGGALLAADAHSDQVSAVITFAPYEPTASFSEITVPTLIFGGSADPIAPVADHAWRHFNSIPAST [TEP123]
DGPYDVDWIYESDGLRNGPYYLGATLYYPINAPEPLASIVIVPGWGMPESTMQDWGPFFASWGIIAMTIGTNNPSTDWPEDRAEALLDAIETIKQENDRIDSPVNGRIDLNSFAVSGWSMGGGGAQLAAVMEPTLKAVIALCPWLDNWVLEPDDLNHSVPTLIFSGQYDVNAPPYLHANIHYNYTPSTTDKLLFEVEYGDHYVANGPNGGSGYVGDKALEWIN [TEP053]
DGPYDVDWIYESDGLRNGPYYLGATLYYPINTSESLASIVIVPGWGMPESSIQNWGPFFASWGIIAMTIGTNNPYDWPEERAEALLDAIETIKQENVRSDSPVYGMVDINSFAVCGYSMGGGGAQWAATIDSYLDAVVALNPALAIYDTINCTDPEFDYYCLVPEHLNHSTPVLIITGENEDANGTSATGYNHYEYTPNATDKMFFQVSNSGHEAAYGPYGANGEVGEKSMQWLKFHLFCLEFLNIIKLQRKLKMI [TEP020]
DGYERGPDPTPTRLLGNGSFSVSTTSVSSLVLGFGGGTIYYPTSTSEGTFGGVVLSPGFTATSGSYAGVARRVASHGFVVLVIDTNTIYDQPDSRGRQILDAVDYLTEDAPSAVASRLDESRIAVSGHSMGGGGTLYAADNRTSVIKTAVALQPWHTDKTWPGVDIPTMIIGAENDAIAPVSSHSIPFYASLSGAPEKAYGEVNNAGHLIANTNDDWQGRLFVSWLKRYLDEDLRYEAFLCPAPSSISLSDYRDTCPG [DP030]
DPTAFAVHGPDPTAQSVQAQRGPYATSRTTVSSGTGFNRGTIYYPTTTSEGTFSAVAVIPGFTESESTMSWYGTTLSSHGFVVFTLEAEGGLDFPDARADQLLAALDYLVNSSSVRDRVDRNRLGVMGHSMGGGGTLEAANERPSLRAAIPLAAWHNTKNFPQVQAATLVISAEGDSVASPASHSEPFYQGLRSAEKAYLELNNGNHFTTNSYTPTVTKYAVSWLKRFLDDDTRYSQFLCPPPPPDSNINEYRHTCPV [DP055]
DSPYERGPDPTERSIEATRGPFSVSTISVSDFSTPGFGAANITYPTSRSEGTFGVVAISPGYTAGESTIAWLRPRIASQGFVVISFDTNSRTDFPSSRGDQLLAALDYVIEDSSVRDRVDGSRQAVMGHSMGGGGSLEAASDRRSIEAVVGLTPWNSDKTWSEVDAASLMIGAENDSVAPARTHAIPFYNSLTGAEDRAYLELDGASHLAPTFSNTEIAKYSISWLKRFVDDDDRYDQFLCPAPSTGFGSPLSDSRVSCPLG [DP098]
DSQNPYERGPVPTLESITAESGPFAIGSVTVPAGSGQGFNSGTVYYPTDTSKGTFGAIAIMPGFLASQSDIAWYGPRLASHGFVVMTLNTSALWDFPADRSRQQLAALTYLTAQSTVKNRIDPGRLAVMGWSMGGGGSLQSAASTPSLKAAIPLAPWDLSNVSSRITVPTMIFGADGDTVASVDDFARPFYNGLANAPDKSLIVLKGTDHFTFAKPNTTIARYSVSWLKRFVDNDTRYDQFLCPTPNDPNTVVLQITCPL [DP028]
DSTSDQHGPDPTKASIEAERGPFDVARVTVPRAGASGFGGGTIYYPSSTEEGKFGAVAIAPGFTASQSSMAWFGPRLASQGFVVFTIDTVTTSDQPDMRGDELRAALRYLTGSSKVKDRIDADRLAVMGHSMGGGGTLEAAKDDPALRAAIPLTPWDLNKNFSRVKTPTMIIGGQSDTIAPVASHSEPFYRSLPDTASKAYLELRGASHFAPNMPNTTIAEYSISWLKRFVDDDRRYDQFLCPAPGASVQISQYLSTCPY [TEP166]
EENPYARGPAPTNASIEADRGSFQTATEKVPAGQGFGGGTIHYPTDTGQGTFGAIAIAPGFFETESAIAWYGPRLASQGFVVITFSTKSTWDTPDLRSDQLLAALRYVTDKSQAKDRVDPGRLAVMGHSMGGGGSLIAAQKAPTLKAAIPLTGWNPNTVFSDLKVPTFVVSAQNDFIAPDGSHSRPFYQSLPESLDKAYLLLAGAGHMAPTKPNVTIAKYSLSWLKRFVDEDTRYDQFLCPLPANDPKIAVYRGTCPLG [TEP064]
ENPHERGPDPTEESVTAPTGPFDTDTENVSSLVSGFGGGTIYYPTDDSEGTFGGVVVAPGYTASESSMSWYGERIASQGFVVFTIDTNTRYDQPNSRGRQMESALDYLVEDSDVDDMVDGDRLALMGHSMGGGGTLAAAEDRPELRAAIPLTPWHLSKDWSDVEVPTMIVGAENDSIASTRSHAVPLYESLDEDLDSTYLELRNATHFAPNISNTTIAKYSISWLKRFVDDDVRYEQFLCPAPDTGFGTDFSDYRDSCPHGGSV [DP041]
EPYASIVIVPGYGMIEASIQDWGPFFASWGIIAMTIGTNNPYDFPEERVEALLDAIETIKQENDRINSPIYEKVDLNSFAVSGWSMGGGGAQLAAVIEPTLKAVIALCPWLDNWVLEPDDLNHSVPTLIFSGQYDVNAPPYLHANIHYNYTPSTTDKLLFEVEYGDHYVANGPDGGSGYVGDRAHEWINNYLLGD [TEP055]
FDPPNGAVIMVPGFRGTPPVYDWWGPMLASVGVITMIIETNTPEDSLEARKNAFIAGVEFLSGENDNPASPIRDKLDTSNIAIMGHSLGGGASLRAAEELGSRIKAVIPLTPYCCELGQSFEGNLSGVSVPTLIIASAEDAIAPPAEHARMLYDSVNAATEKVYLEFATGNHMLPSNSGQDLETLGTYVYAFIKENFTDNPRYADFIFGDGEEQFSTYEISQ [TEP136]
FGAVAISPGFTAAWSSLSWLGPRLASHGFVVIGIETNSRLDQPASRGDQLLAALDWAVNQSPAASRIDRNRLAVAGHSMGGGGTLEAAKDRPSLKAAIPIAPWNLDKTWPEIRTPTLILGGENDLIAPVASHAEPFYNSIPASAEKAYLELDNESHFFPQFSNTIMAKYMISWLKRFVDNDTRYDQFLCP [TEP090]
FGGGTIYYPTSTADGTFGAVVISPGFTAYESSIAWLGPRLASQGFVVFTIDTNTTLDQPDSRGRQLLAALDYLTQRSSVRTRVDATRLGVMGHSMGGGGSLEAAKSRPSLKAAIPLTGWNTDKTWPELRTPTLVVGADGDSIAPVATHSEPFYESLPGSLDKAYLELRGASHFTP [TEP045]
FNPGSGGGSGGANTCETNCGFERGPDPTLSGLRSGTGPYSVSTVDVPYGSAGFGGGTIHYPTNTSGGKMGAIAVIPGFVSPESSIGWWGPALASQGFVVLTMGTQTPLDSPSARARQLTAGLDHLVEQSNSSSSAISGLVDPSRVAMVGWSMGGGGTLKNAAGDRLSAAIPLAPFDMDMSSYKNIETPTMILGCESDIIAAADLFAVPSYEHIPESTDKAYFEFAGQGHWCANGNNDNNELLSILGVSWMKRYLDKDTRYDQFLCGTNHSSNSAFSQVRDTCN [DP064]
FPAVVLAVSKQPHTDTRALTDEIKTALREIEPSLPAEITVNAELFQMKRFIDTGVWNVGEALAIGAVVVQPTGAGAQTGEFRKGPDPTEASVRASSGTFTTTTASVSSLVAGFGGGTIHYPTDTSQGTYGAIAFAPGFTASSASYSWIGPRIASQGFVVFLINTDSRYDFPASRATQLQNALNYLVNSSVAASRIDLNRLAVG [TEP030]
FRSRGATIFYPEEPSHPLASIVIVPGWSSSERSIRAWGPFLASHGMVTMTIGTNNPPRDFPEQRAAALLDAIATLRAENARDTSPIFEKLDLSRIAVGGWSMGGGGAQLAAVQDPALKAAIGLCPWHEAPDIFEHTVPLLIIGGEKDRRAPFNEHGLVHYCTTPPATPKLLFEVRDAGH [TEP100]
FSAPGPSAPCSNCTRGPAPTATALKASSGPFTTAKFSVSGFLKGFGDSTVYYPTNTTGKMGAIAVIPGYLSYENSIDWWGPRLASHGFVVMTMNTETIYDQPDSRASQLSEALDYLIAQSNSSSSPIYNKVDSTRLGAIGWSMGGGGSLKLSTQRSINAIIPQAPWYLGSSAFSGIKTPALILACSADTVAPVAQHASPFYNQIPNSTPKAFLEIYGGSHFCANSGYPNQSMLGMYGIAWMKRFIDFDSRYSQFLCGPNHESDLAISDYRQNCPY [ESM044]
FSFTPPPEPNPDPDPTPPCEVDCDFTRGPDPSSSYLEAASGPYSVNTINVSSSVSGFGGGTVYYPTGTSGLMGAISIAPGFFAAESSIGWWGPRLASHGFVVITIATNSIFDGTDSRATQLDRALDYVINQSNSGSSAISGMVDSNRVGAMGWSMGGGGSLILGSGTRLSAVIPLAPWESGSNNFDQMTAPTLIIACENDGTAPVASHASPFYNTIPGTTDKAFLEINGGGHSCANGGGVNG [ESM098]
FTASQSSIQWYGPLLAGEGFVVITIDTNTIFDQPDSRATQLLAALDYLTGSSDVRHIVDPNRLAVAGWSMGGGGSLEAAVRRPSLKAAIPLAGWHTTKTFNTAVPTLVVACENDAVAGNAQHSGPFYDGLPASTPKAYLEIAGGDHTCVGSYDINIATPVVAWAKRWVNGDTSASAQLCPPKPIGGPISDSKANCPY [ESM171]
FTPSPDPTPDPEPTPEPCQGDCDFTRGPDPSISYLEADNGPYTVRTIDVPSSAGSFNGGTIHYPSGTSGTMGAIAVASGFLAPEGDIIWWGPRLASHGFVVITISTPTFDGEDRRATQLSEALDYVIAQSNSNGSDISGMVDGSRLGAMGWSMGGGGTLQLASGTRLSAAIPLAPWNSGSNNFDQIETPTLIIACENDGTAAVGTHASPFYHSIPASTDKAFLEINGGGHSCANGGGTNGGLLGKYGVSWMKLFMDDDSRYSQFLCGPNHAANSAISEYRDTCNY [DP049]
GAAGNPYERGPDPTESSIEAPRGHYAVSETSVSALGVTGFGGGTIYYPTSTADGTFGAVAIAPGYTSLQSSIAWLGPRLASQGFVVITIDTRTTLDQPAGRGAQLLAALDYLTRRSSVRNRIDSGRLGVMGHSMGGGGSLEAAKGRPSLQAAIPLTGWNLDKTWPEIRVPTLLVGADGDTIAPVATHSQPFYQSLPSTLDRAYLELNNATHFTPNRPDTTIAKYSVSWLKRFIDNDTRYEQFLCPLPRPSRTIEEYRGNCPHTS [TEP007]
